Laboratory results taken from patent US20200024330A1.

Assays:
[1] = target: HIV-1 93IN905 envelope glycoprotein (Env) (HIV-1); test: cell-based or functional assay
[2] = target: HIV-1 Env of isolate 93WR029 (HIV-1); test: cell-based or functional assay
[3] = target: HIV-1 JR-CSF Env K421A (HIV-1 (isolate JR-CSF)) (UniProt P20871); test: cell-based or functional assay
[4] = target: HIV-1 JR-CSF Env N295A (HIV-1 JR-CSF) (UniProt P20871); test: cell-based or functional assay
[5] = target: HIV-1 Env of isolate 92WR020 (HIV-1); test: cell-based or functional assay
[6] = target: HIV-1 JR-CSF Env N386A (HIV-1 isolate JR-CSF) (UniProt P20871); test: cell-based or functional assay
[7] = target: HIV-1 JR-CSF Env T303A (HIV-1 JR-CSF) (UniProt P20871); test: cell-based or functional assay
[8] = target: HIV-1 JR-CSF Env I420A (HIV-1 (isolate JR-CSF)) (UniProt P20871); test: cell-based or functional assay
[9] = target: HIV-1 JR-CSF Env N332A (HIV-1 isolate JR-CSF) (UniProt P20871); test: cell-based or functional assay
[10] = target: HIV-1 JR-CSF Env T394A (HIV-1 (isolate JR-CSF)) (UniProt P20871); test: cell-based or functional assay
[11] = target: HIV-1 Env of isolate 92RW008 (HIV-1); test: cell-based or functional assay
[12] = target: HIV-1 JR-CSF Env N301A (HIV-1 JR-CSF) (UniProt P20871); test: cell-based or functional assay
[13] = target: HIV-1 MGRM-C-027 envelope glycoprotein (Env) (HIV-1); test: cell-based or functional assay
[14] = target: HIV-1 JR-CSF Env R304A (HIV-1 JR-CSF) (UniProt P20871); test: cell-based or functional assay
[15] = target: HIV-1 JR-CSF Env P299A (HIV-1 JR-CSF) (UniProt P20871); test: cell-based or functional assay
[16] = target: HIV-1 Env of isolate JR-CSF (HIV-1) (UniProt P20871); test: cell-based or functional assay
[17] = target: HIV-1 JR-CSF Env E321aA (HIV-1 isolate JR-CSF) (UniProt P20871); test: cell-based or functional assay
[18] = target: HIV-1 JR-CSF Env N411A (HIV-1 (isolate JR-CSF)) (UniProt P20871); test: cell-based or functional assay
[19] = target: HIV-1 JR-CSF Env S306A (HIV-1 JR-CSF) (UniProt P20871); test: cell-based or functional assay
[20] = target: HIV-1 JR-CSF Env T413A (HIV-1 (isolate JR-CSF)) (UniProt P20871); test: cell-based or functional assay
[21] = target: HIV-1 Env of isolate CMU02 (HIV-1); test: cell-based or functional assay
[22] = target: Env of the clade A HIV-1 pseudoviruses of the cross-clade 162-pseudovirus panel (n = 26); test: cell-based or functional assay
[23] = target: HIV-1 JR-CSF Env T341A (HIV-1 isolate JR-CSF) (UniProt P20871); test: cell-based or functional assay
[24] = target: HIV-1 JR-CSF Env R419A (HIV-1 (isolate JR-CSF)) (UniProt P20871); test: cell-based or functional assay
[25] = target: HIV-1 JR-CSF Env N392Q (HIV-1 (isolate JR-CSF)) (UniProt P20871); test: cell-based or functional assay
[26] = target: HIV-1 JR-CSF Env R350A (HIV-1 isolate JR-CSF) (UniProt P20871); test: cell-based or functional assay
[27] = target: HIV-1 Env of isolate MGRM-A-002 (HIV-1); test: cell-based or functional assay
[28] = target: HIV-1 JR-CSF Env Q337A (HIV-1 isolate JR-CSF) (UniProt P20871); test: cell-based or functional assay
[29] = target: HIV-1 JR-CSF Env R327A (HIV-1 isolate JR-CSF) (UniProt P20871); test: cell-based or functional assay
[30] = target: HIV-1 JR-CSF Env N355A (HIV-1 isolate JR-CSF) (UniProt P20871); test: cell-based or functional assay
[31] = target: HIV-1 Env of isolate MGRM-AE-001 (HIV-1); test: cell-based or functional assay
[32] = target: HIV-1 Env of isolate 92UG031 (HIV-1); test: cell-based or functional assay
[33] = target: HIV-1 JR-CSF Env H330A (HIV-1 isolate JR-CSF) (UniProt P20871); test: cell-based or functional assay
[34] = target: HIV-1 JR-CSF Env N276A (HIV-1 JR-CSF) (UniProt P20871); test: cell-based or functional assay
[35] = target: HIV-1 Env of isolate 92WR024 (HIV-1); test: cell-based or functional assay
[36] = target: Env of the clade D HIV-1 pseudoviruses of the cross-clade 162-pseudovirus panel (n = 25); test: cell-based or functional assay
[37] = target: HIV-1 JR-CSF Env Q422A (HIV-1 (isolate JR-CSF)) (UniProt P20871); test: cell-based or functional assay
[38] = target: Env of the clade F HIV-1 pseudoviruses of the cross-clade 162-pseudovirus panel (n = 15); test: cell-based or functional assay
[39] = target: HIV-1 JR-CSF Env I323A (HIV-1 isolate JR-CSF) (UniProt P20871); test: cell-based or functional assay
[40] = target: HIV-1 APV6 envelope glycoprotein (Env) (HIV-1); test: cell-based or functional assay
[41] = target: WT JR-FL gp120 (HIV-1 (isolate JR-FL)); test: ELISA on coated gp120; EC50 by nonlinear regression
[42] = target: JR-FL gp120 ΔV1/ΔV2 (HIV-1 (isolate JR-FL)); test: as above

B1: PGT-125 (antibody, V domains shown)
VH: QSQLQESGPRLVEASETLSLTCNVSGESTGACTYFWGWVRQAPGKGLEWIGSLSHCQSFWGSGWTFHNPSLKSRLTISLDTPKNQVFLKLTSLTAADTATYYCARFDGEVLVYNHWPKPAWVDLWGRGIPVTVSS
VL: QSALTQPPSASGSPGQSITISCNGTATNFVSWYQQFPDKAPKLIIFGVDKRPPGVPDRFSGSRSGTTASLTVSRLQTDDEAVYYCGSLVGNWDVIFGGGTTLTVL
IC50 neutralization [1]: 0.0137 µg/mL | IC50 (µg/mL), pseudovirus neutralization [2]: > 50 µg/mL | Fold IC50 increase relative to wild-type [3]: 1.2 fold | Fold IC50 increase relative to wild-type [4]: 0.8 fold | IC50 (µg/mL), pseudovirus neutralization [5]: 0.004 µg/mL | Fold IC50 increase relative to wild-type [6]: 0.8 fold | Fold IC50 increase relative to wild-type [7]: > 250 fold | Fold IC50 increase relative to wild-type [8]: 1.1 fold | Fold IC50 increase relative to wild-type [9]: 2 fold | Fold IC50 increase relative to wild-type [10]: 0.6 fold | IC50 (µg/mL), pseudovirus neutralization [11]: 0.004 µg/mL | Fold IC50 increase relative to wild-type [12]: 213 fold | IC50 neutralization [13]: > 10 µg/mL | Fold IC50 increase relative to wild-type [14]: 1.9 fold | Fold IC50 increase relative to wild-type [15]: 0.2 fold | Polyclonal Transfectant Neutralization Index (well 5123 A6) [16]: 119 | Primary Neutralization Index (B cell culture well 5123 A6) [16]: 1730 | Fold IC50 increase relative to wild-type [17]: 1 fold | Fold IC50 increase relative to wild-type [18]: 0.5 fold | Fold IC50 increase relative to wild-type [19]: 1.2 fold | Fold IC50 increase relative to wild-type [20]: 0.5 fold | IC50 (µg/mL), pseudovirus neutralization [21]: > 50 µg/mL | Median IC50 against viruses neutralized with an IC50 <50 µg/ml [22]: 0.01 µg/mL | Fold IC50 increase relative to wild-type [23]: 1.1 fold | Fold IC50 increase relative to wild-type [24]: 1 fold | Fold IC50 increase relative to wild-type [25]: 1.2 fold | Fold IC50 increase relative to wild-type [26]: 0.6 fold | IC50 (µg/mL), pseudovirus neutralization [27]: 0.013 µg/mL | Fold IC50 increase relative to wild-type [28]: 0.8 fold | Fold IC50 increase relative to wild-type [29]: 2.1 fold | Fold IC50 increase relative to wild-type [30]: 1.2 fold | IC50 (µg/mL), pseudovirus neutralization [31]: 2.95 µg/mL | IC50 (µg/mL), pseudovirus neutralization [32]: > 50 µg/mL | Fold IC50 increase relative to wild-type [33]: 0.7 fold | Fold IC50 increase relative to wild-type [34]: 0.9 fold | IC50 (µg/mL), pseudovirus neutralization [35]: 35.5 µg/mL | Median IC50 against viruses neutralized with an IC50 <50 µg/ml [36]: 0.09 µg/mL | Fold IC50 increase relative to wild-type [37]: 1.2 fold | Median IC50 against viruses neutralized with an IC50 <50 µg/ml [38]: 0.04 µg/mL | Fold IC50 increase relative to wild-type [39]: 0.9 fold | IC50 neutralization [40]: 0.0359 µg/mL | EC50 [41]: 0.2 µg/mL | EC50 [42]: 0.6 µg/mL

B2: PGT-123 (antibody, V domains shown)
VH: QLHLQESGPGLVKPPETLSLTCSVSGASINDAYWSWIRQSPGKRPEWVGYVHHSGDTNYNPSLKRRVTFSLDTAKNEVSLKLVDLTAADSATYFCARALHGKRIYGIVALGELFTYFYMDVWGKGTAVTVSS
VL: SSMSVSPGETAKISCGKESIGSRAVQWYQQKPGQPPSLIIYNNQDRPAGVPERFSASPDFRPGTTATLTITNVDAEDEADYYCHIYDARGGTNWVFDRGTTLTVL
IC50 neutralization [1]: 0.0071 µg/mL | IC50 (µg/mL), pseudovirus neutralization [2]: > 50 µg/mL | Fold IC50 increase relative to wild-type [3]: 0.9 fold | Fold IC50 increase relative to wild-type [4]: 1.2 fold | IC50 (µg/mL), pseudovirus neutralization [5]: 0.002 µg/mL | Fold IC50 increase relative to wild-type [6]: 1.4 fold | Fold IC50 increase relative to wild-type [7]: 1.1 fold | Fold IC50 increase relative to wild-type [8]: 3.2 fold | Fold IC50 increase relative to wild-type [9]: > 200 fold | Fold IC50 increase relative to wild-type [10]: 0.4 fold | IC50 (µg/mL), pseudovirus neutralization [11]: 0.003 µg/mL | Fold IC50 increase relative to wild-type [12]: 1 fold | IC50 neutralization [13]: 0.0169 µg/mL | Fold IC50 increase relative to wild-type [14]: 0.7 fold | Fold IC50 increase relative to wild-type [15]: 0.7 fold | Primary Neutralization Index (B cell culture well 4858 P8) [16]: 1.6 | Fold IC50 increase relative to wild-type [17]: 0.6 fold | Fold IC50 increase relative to wild-type [18]: 0.5 fold | Fold IC50 increase relative to wild-type [19]: 0.5 fold | Fold IC50 increase relative to wild-type [20]: 0.4 fold | IC50 (µg/mL), pseudovirus neutralization [21]: > 50 µg/mL | Median IC50 against viruses neutralized with an IC50 <50 µg/ml [22]: 0.02 µg/mL | Fold IC50 increase relative to wild-type [23]: 0.3 fold | Fold IC50 increase relative to wild-type [24]: 0.7 fold | Fold IC50 increase relative to wild-type [25]: 1 fold | Fold IC50 increase relative to wild-type [26]: 0.5 fold | IC50 (µg/mL), pseudovirus neutralization [27]: 0.011 µg/mL | Fold IC50 increase relative to wild-type [28]: 0.5 fold | Fold IC50 increase relative to wild-type [29]: 1.7 fold | Fold IC50 increase relative to wild-type [30]: 0.5 fold | IC50 (µg/mL), pseudovirus neutralization [31]: > 50 µg/mL | IC50 (µg/mL), pseudovirus neutralization [32]: > 50 µg/mL | Fold IC50 increase relative to wild-type [33]: 0.3 fold | Fold IC50 increase relative to wild-type [34]: 1.1 fold | IC50 (µg/mL), pseudovirus neutralization [35]: > 50 µg/mL | Median IC50 against viruses neutralized with an IC50 <50 µg/ml [36]: 0.02 µg/mL | Fold IC50 increase relative to wild-type [37]: 0.8 fold | Median IC50 against viruses neutralized with an IC50 <50 µg/ml [38]: 0.09 µg/mL | Fold IC50 increase relative to wild-type [39]: 1 fold | IC50 neutralization [40]: 0.0328 µg/mL | EC50 [41]: 0.2 µg/mL | EC50 [42]: 0.3 µg/mL
